Values joined by “and” are separate entries in the source; they are usually repeats but may differ in a detail not shown here. Equal entries are not always repeated.
Legend:
[1] = target: T1, recombinant human IL-13 (human, UniProt P35225 35-146, limits assumed); assay: cell-based or functional assay
[2] = target: T1, recombinant human IL-13; assay: cell-based or functional assay; remark: listed apart in the source
[3] = target: T1, recombinant human IL-13; assay: cell-based or functional assay; remark: listed apart in the source
[4] = target: T2, human serum albumin (human, UniProt P02768 25-609); assay: HSA binding activity, pH 7.4; method not described
T2 construct: also called HSA

[5] = target: T2, human serum albumin; assay: HSA binding activity, pH 5.5; method not described

T1 sequence (P35225 35-146 limits assumed): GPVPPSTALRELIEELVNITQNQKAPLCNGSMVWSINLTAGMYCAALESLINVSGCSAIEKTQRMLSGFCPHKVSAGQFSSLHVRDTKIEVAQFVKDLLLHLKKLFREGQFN

Binder | Activity IC50 (µg/mL), HEK-Blue IL-4/IL-13 cells [2] [µg/mL] | IL-13 functional activity IC50 [3] [µg/mL] | EC50 [4] [µg/mL] | EC50 [5] [µg/mL] | also measured
MY9286 (VHH) VHH: EVQLLESGGGLVQPGGSLRLSCAASGFTFSDYTMTWVRQAPGKGLEWVSTVNPDGDSTFYRDSVKGRFTISRDNAKNTLYLQLSSLKTEDTAMYYCTKASLITWPQSPRGQGTLVTVSS | – | – | – | – | Humanized nanobody IC50 (µg/mL), HEK-Blue IL-4/IL-13 cells [1]: 3.42 µg/mL
Lebrikizumab (antibody, V domains shown) VH: QVTLRESGPALVKPTQTLTLTCTVSGFSLSAYSVNWIRQPPGKALEWLAMIWGDGKIVYNSALKSRLTISKDTSKNQVVLTMTNMDPVDTATYYCAGDGYYPYAMDNWGQGSLVTVSS VL: DIVMTQSPDSLSVSLGERATINCRASKSVDSYGNSFMHWYQQKPGQPPKLLIYLASNLESGVPDRFSGSGSGTDFTLTISSLQAEDVAVYYCQQNNEDPRTFGGGTKVEIKR | – | 0.0076 | – | – | Control antibody 2 IC50 (µg/mL), HEK-Blue IL-4/IL-13 cells [2]: 0.0043 µg/mL and 0.0041 µg/mL and 0.004 µg/mL
HuNb3-11 (VHH, also called HSA HuNb3-11; Control antibody 3) VHH: EVQLQESGGGLVEPGGSLRLSCVASGFTFQHYAMSWVRQAPGKGLEWVSSISMVGGGTSYADSVKGRFTMSRDNAKNTLYLQLNSLKSEDTAMYYCVRGWHPDVPRPLGQGTLVTVSS | – | – | 0.11 | 0.164 | –
MY9293 (VHH) VHH: EVQLLESGGGLVQPGESLRLSCEVSGHTHTNYCMGWFRQAPGKGLEGVAAIDTDGSTTYADSVKGRFTISKDNAKNTLYLQMNSLKPEDTAMYYCMAEDFRDEYAPEPRLSSGGYCSIGYGMDYWGKGTLVTVSS | – | – | – | – | Humanized nanobody IC50 (µg/mL), HEK-Blue IL-4/IL-13 cells [1]: 1.05 µg/mL
MY9466 (VHH) VHH: EVQLLESGGGLVQPGESLRLSCEVSGHTHTNYCMGWFRQAPGKGLEGVAAIDTDGSTTYADSVKGRFTISKDNAKNTLYLQMNSLKPEDTAMYYCMAEDFRDEYAPEPRLSSGGYCSIGYGMDYWGKGTLVTVSS | 0.0038 | – | – | – | –
MY9217 (bispecific antibody, Trivalent long-acting nanobody: two anti-IL-13 VHH and one anti-HSA VHH in one chain; also called MY9286-GS20-HSA HuNb3-11-GS20-MY9293) EVQLLESGGGLVQPGGSLRLSCAASGFTFSDYTMTWVRQAPGKGLEWVSTVNPDGDSTFYRDSVKGRFTISRDNAKNTLYLQLSSLKTEDTAMYYCTKASLITWPQSPRGQGTLVTVSSGGGGSGGGGSGGGGSGGGGSEVQLQESGGGLVEPGGSLRLSCVASGFTFQHYAMSWVRQAPGKGLEWVSSISMVGGGTSYADSVKGRFTMSRDNAKNTLYLQLNSLKSEDTAMYYCVRGWHPDVPRPLGQGTLVTVSSGGGGSGGGGSGGGGSGGGGSEVQLLESGGGLVQPGESLRLSCEVSGHTHTNYCMGWFRQAPGKGLEGVAAIDTDGSTTYADSVKGRFTISKDNAKNTLYLQMNSLKPEDTAMYYCMAEDFRDEYAPEPRLSSGGYCSIGYGMDYWGKGTLVTVSSA | – | 0.0029 | 0.0648 | 0.0953 | –
MY9219 (bispecific antibody, Trivalent long-acting nanobody: two anti-IL-13 VHH and one anti-HSA VHH in one chain; also called HSA HuNb3-11-MY9286-GS20-MY9293-GS20) EVQLQESGGGLVEPGGSLRLSCVASGFTFQHYAMSWVRQAPGKGLEWVSSISMVGGGTSYADSVKGRFTMSRDNAKNTLYLQLNSLKSEDTAMYYCVRGWHPDVPRPLGQGTLVTVSSGGGGSGGGGSGGGGSGGGGSEVQLLESGGGLVQPGGSLRLSCAASGFTFSDYTMTWVRQAPGKGLEWVSTVNPDGDSTFYRDSVKGRFTISRDNAKNTLYLQLSSLKTEDTAMYYCTKASLITWPQSPRGQGTLVTVSSGGGGSGGGGSGGGGSGGGGSEVQLLESGGGLVQPGESLRLSCEVSGHTHTNYCMGWFRQAPGKGLEGVAAIDTDGSTTYADSVKGRFTISKDNAKNTLYLQMNSLKPEDTAMYYCMAEDFRDEYAPEPRLSSGGYCSIGYGMDYWGKGTLVTVSSA | – | 0.0024 | 0.0467 | 0.0648 | –

Further lines, with some results ahead:

Activity IC50 (µg/mL), HEK-Blue IL-4/IL-13 cells [2] [µg/mL] | IL-13 functional activity IC50 [3] [µg/mL] | EC50 [4] [µg/mL] | EC50 [5] [µg/mL] | Binder | also measured
0.0029 | – | – | – | MY9464 (VHH) EVQLLESGGGLVQPGESLRLSCEVSGHTHTNYCMGWFRQAPGKGLEGVAAIDTDGSTTYADSVKGRFTISKDNAKNTLYLQMNSLKPEDTAMYYCMAEDFRDEYAPEPRLSSGGYCSIGYGMDYWGKGTLVTVSSGGGGSGGGGSGGGGSGGGGSEVQLLESGGGLVQPGGSLRLSCAASGFTFSDYTMTWVRQAPGKGLEWVSTVNPDGDSTFYRDSVKGRFTISRDNAKNTLYLQLSSLKTEDTAMYYCTKASLITWPQSPRGQGTLVTVSS | –
1.75 | – | – | – | MY9470 (VHH) EVQLLESGGGLVQPGESLRLSCEVSGHTHTNYCMGWFRQAPGKGLEGVAAIDTDGSTTYADSVKGRFTISKDNAKNTLYLQMNSLKPEDTAMYYCMAEDFRDEYAPEPRLSSGGYCSIGYGMDYWGKGTLVTVSSGGGGSGGGGSGGGGSGGGGSEVQLLESGGGLVQPGESLRLSCEVSGHTHTNYCMGWFRQAPGKGLEGVAAIDTDGSTTYADSVKGRFTISKDNAKNTLYLQMNSLKPEDTAMYYCMAEDFRDEYAPEPRLSSGGYCSIGYGMDYWGKGTLVTVSS | –
0.0014 | – | – | – | MY9431 (VHH) EVQLLESGGGLVQPGGSLRLSCAASGFTFSDYTMTWVRQAPGKGLEWVSTVNPDGDSTFYRDSVKGRFTISRDNAKNTLYLQLSSLKTEDTAMYYCTKASLITWPQSPRGQGTLVTVSSGGGGSGGGGSGGGGSGGGGSEVQLLESGGGLVQPGESLRLSCEVSGHTHTNYCMGWFRQAPGKGLEGVAAIDTDGSTTYADSVKGRFTISKDNAKNTLYLQMNSLKPEDTAMYYCMAEDFRDEYAPEPRLSSGGYCSIGYGMDYWGKGTLVTVSS | –
